Assay results as given in US10772972B2, “Anti-STEAP2 antibody drug conjugates, and compositions and uses thereof” (Regeneron Pharmaceuticals, Inc., priority 2016, dated 2020).
Changes are numbered by the printed parent chain. Blank lines part the entries; values can stand above or below the molecule they belong to.

Columns and labels:
human CD3 (Jurkat cells) = assay: FACS titration of anti-CD3 antibodies on Jurkat cells; assay type: binding; settings: anti-CD3 antibody
From the text: See, e.g. FACS binding experiments outlined in Example 12 and in PCT/US2016/044732 filed Jul. 29, 2016.

[1] = system: PC3_STEAP2/1 cells (PC3 engineered to express a STEAP2/1 chimeric construct); assay: FACS binding titration of STEAP2xCD3 bispecifics on PC3_STEAP2/1 cells; parameters: species or system human; settings: 66.6 nM to 0.001 nM, 30 minutes at 4° C.
Protocol: (§1) FACS Binding Titration on Jurkat Cells, PC3_STEAP2/1 Cells and cynomolgus T Cells: Flow cytometric analysis was utilized to determine binding of STEAP2×CD3 bispecific antibodies to Jurkat, PC3_STEAP2/1 chimeric and cynomolgus T cells, followed by detection with a phycoerythrin (PE)-labeled anti-human IgG antibody. Briefly, 2×10^5 cells/well were incubated for 30 minutes at 4° C. with a serial dilution of STEAP2×CD3 bispecific antibodies or control antibody (a human IgG1 antibody that binds a feline antigen with no cross-reactivity to STEAP2 or human or cynomolgus CD3) ranging from 66.6 nM to 0.001 nM. After incubation, the cells were washed twice with cold PBS containing 1% filtered FBS and a PE-conjugated anti-human secondary antibody was added to the cells and incubated for an additional 30 minutes. Wells containing no antibody or secondary antibody only were used as a control. After incubation, cells were washed, re-suspended in 200 μL cold PBS containing 1% filtered FBS and analyzed by flow cytometry on a BD FACS Canto II.

cynomolgus T cells = assay: FACS binding titration of STEAP2xCD3 bispecifics on cynomolgus T cells; settings: 66.6 nM to 0.001 nM, 30 minutes at 4° C.
human PBMCs = assay: T cell proliferation assay, human PBMC; assay type: cell-based; settings: with anti-CD28 200 ng/mL, 72 hours; read-out: hPBMC Proliferation [M] (EC50)
Protocol: Thawed human or freshly isolated monkey PBMCs (50,000 cells/well) were incubated with 3-fold (human, concentration range: 5E-10M to 2.82E-15M; cynomolgus, concentration range: 1E-09M to 4.57E-13M) serial dilutions of STEAP2×CD3 bispecifics or isotype control in complete medium (RPMI supplemented with 10% FBS, 100 U/mL penicillin, 100 μg/mL streptomycin, 292 μg/mL L-glutamine) and a fixed concentration (human: 200 ng/mL, cyno: 500 ng/mL) of a commercial anti-CD28 antibody (Biolegend, Catalog #302914) in white flat bottom 96-well plates for 72 hours at 37° C. Isolated monkey PBMCs were from two donors (identified as mk8781M or mk9381M). Following incubation, CellTiter Glo® (Promega, Cat #7573) was added and luminescence, as readout for cell viability, was measured using a VICTOR X5 multi-label plate reader. Cell titer was calculated by dividing the luminescence of stimulated cells by the baseline luminescence of unstimulated cells.
All αSTEAP2×αCD3 bispecific antibodies induce human PBMC proliferation in the presence of a co-stimulatory anti-CD28 antibody (See Table 20 and FIG. 9). PBMCs were incubated with a serial dilution of bispecific antibodies or the control antibody and a fixed concentration of anti-CD28 for 72 hours, and cell viability was measured in a luminescence assay to detect live cells. […]

[2] = system: Jurkat cells (express human CD3); assay: FACS binding titration of STEAP2xCD3 bispecifics on Jurkat cells; settings: 66.6 nM to 0.001 nM, 30 minutes at 4° C.
Protocol: as §1

EC50, FACS titration of Jurkat cells (human CD3) (human CD3 (Jurkat cells)): retained their binding affinity
B1: CD3-VH-G: anti-CD3 antibody engineered from CD3-VH-P to contain only germline frameworks, HCVR SEQ ID NO: 1730 (antibody, V domains shown)
VH: EVQLVESGGGLVQPGRSLRLSCAASGFTFDDYSMHWVRQAPGKGLEWVSGISWNSGSKGYADSVKGRFTISRDNAKNSLYLQMNSLRAEDTALYYCAKYGSGYGKFYHYGLDVWGQGTTVTVSS
VL: DIQMTQSPSSLSASVGDSVTITCRASQSINNYLNWYQQKPGKAPKLLIYTASSLLSGVPSRFSGSGSGTDFTLTISGLHPEDFATYFCQQSFSTPPITFGQGTRLDIK

FACS PC3_STEAP2/1 EC50 [M] [1]: No Binding | Cynomolgus T cells EC50 [M] (cynomolgus T cells): Very Weak | EC50 [2]: 13.6 nM
B2: BSSTEAP2/CD3-010: STEAP2×CD3 bispecific: anti-STEAP2 H1H7809N (SEQ 330), anti-CD3 H1H7198P (SEQ 1466), common LCVR of H1H7809N (antibody, V domains shown)
VH 1: QVQLVESGGGVVQPGRSLGLSCAASGFTFSSYGMHWVRQAPGKGLEWVAVIWYDGSNKYYVDSVKGRFTISRDNSKNTLYLQMNSLRAEDTAVYYCAREGLRFLENYYYYYGMDVWGQGTTVTVSS
VH 2: B1 VH with D30A, S33T, A40V, G50D, G59D, S78F, A97V, H108F, G110A, L111M
VL: EIVLTQSPGTLSLSPGERATLSCRASQSISSTYLAWYQQRPGQAPRLLIYGASSRATGIPDRFSGSGSGTDFTLTISRLEPEDFAVYYCQQYGTSPYTFGQGTKLEIK
EC50 (human PBMCs): 6.55e-12 M
